From publication PMC4546627, “Biophysical Characterization of Essential Phosphorylation at the Flexible C-Terminal Region of C-Raf with 14-3-3ζ Protein” (PLoS ONE, 2015)
Entries after “also recorded” stand apart in the source; their conditions may differ. Where a SMILES comes first, the peptide text is derived from it. Where no end group is shown, it is not given here. [ ]: non-standard residue; d: D form. pS = N[C@@H](COP(=O)(O)O)C(=O)O

Tests used:
[1] = target: T1, human 14-3-3ζ protein (Homo sapiens, UniProt P63104); assay: Isothermal titration calorimetry (ITC) of peptide binding to 14-3-3ζ
T1 construct: hexa-histidine (His6, from pQE30 vector) (N); made in house; host or cells: E. coli M15
T1 sequence (P63104 1-245): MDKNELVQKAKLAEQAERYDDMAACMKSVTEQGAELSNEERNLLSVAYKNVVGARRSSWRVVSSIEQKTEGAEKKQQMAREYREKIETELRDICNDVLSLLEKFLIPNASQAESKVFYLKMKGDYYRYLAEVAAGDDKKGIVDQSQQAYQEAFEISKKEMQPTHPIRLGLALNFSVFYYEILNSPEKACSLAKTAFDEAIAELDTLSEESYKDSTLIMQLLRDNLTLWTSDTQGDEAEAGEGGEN
Description: Human 14-3-3ζ full length sequence was PCR amplified using pcDNA3 14-3-3ζ as a template with forward primer (5´-[…]-3´) and reverse primer (5´-[…]-3´). The PCR amplified product was digested with BamH1 and Pst1 and cloned into pQE30 vector. This vector contains N-terminal hexa- histidine tag suitable for affinity purification. The cloned fragment was confirmed by automated DNA sequencer, Applied Biosystem 3130×I 96 capillary DNA Analyzer.
E. coli M15 cells were transformed with this construct and grown at 37°C in LB medium containing ampicillin and kanamycin. The cells were grown till 0.6 (O.D.600nm) and the expression of the protein was induced with 0.5 mM IPTG for 3 hours. The cells were harvested and stored at -70°C. The cells were subsequently resuspended in lysis buffer (10 mM NaH2PO4, 100 mM NaCl, pH7.0, 1 mM PMSF (Sigma, St. Louis, MO), 1X Halt Protease inhibitor cocktail (ThermoFisher Scientific, Waltham, MA) and lysed by passing through the French press at 20,000 psi. Cell lysate was centrifuged at 20,000×g for 15 minutes at 4°C. The supernatant was collected and again centrifuged at 100,000×g for 1 hour. Cell homogenate was applied onto TALON affinity resin (Clontech, Mountain View, CA) pre-equilibrated with lysis buffer. Resin was washed with five volumes of lysis buffer containing 20 mM imidazole. Bound protein was eluted with 150 mM imidazole containing lysis buffer. Imidazole was then removed by dialysis; the buffer was exchanged with 10 mM NaH2PO4, 100 mM NaCl, pH 6.1 and the protein was concentrated in sucrose bed. Commercially synthesized and HPLC-purified (> 95%) KH16p and KH16 peptides were purchased from GL Biochem (Shanghai, China) and used as received.
ITC technique was employed to study thermodynamics of KH16p and KH16 peptides interactions with 14-3-3ζ protein with the help of VP-ITC micro-calorimeter in high feedback mode. The peptides were dissolved in the same dialysis buffer of 14-3-3ζ protein (i.e., 10 mM Na2HPO4 buffer containing 100 mM NaCl, pH 6.1). Sample cell with 50 μM 14-3-3ζ protein was titrated against 1 mM peptide in a syringe with 300 rpm stirring speed with an initial delay of 60 sec. The cell temperature was kept at 298 K and 10 μcal/s of reference power as applied to maintain a flat baseline. A total of 17 injections of 1 mM KH16p/KH16 were performed, where the initial injection was of 0.4 μl and the final was 2.0 μl, while the remaining 15 injections were 2.5 μl each. Each injection was over a period of 0.8 sec with a spacing of 150 sec and filter time of 5 sec. An equivalent control experiment to subtract the heat of dilution of the peptides in buffer was performed (i.e., the same concentration of peptide was injected into the buffer solution keeping same experimental parameters). Results obtained were plotted using MicroCal Origin 7.0 software. In order to determine the thermodynamic parameters (i.e., association constant K A and enthalpy of reaction ΔH), the single-site binding model was used. Other thermodynamic parameters such as the free energy of binding (ΔG) and entropy (ΔS) were calculated using Eqs (2) and (3), respectively: ΔG=−RTlnKA (2) ΔG=ΔH−TΔS (3)

[2] = target: C-Raf pS259 peptide (Homo sapiens) (UniProt P04049); conditions: cited from earlier work
[3] = target: C-Raf pS233/pS259 peptide (Homo sapiens) (UniProt P04049); conditions: cited from earlier work
[4] = target: C-Raf pS233 peptide (Homo sapiens) (UniProt P04049); conditions: cited from earlier work
[5] = target: T1, human 14-3-3ζ protein; assay: STD NMR with 14-3-3ζ; assay type: binding; conditions: 1 mM peptide, 2 μM 14-3-3ζ (500:1), D2O, 10 mM Na2HPO4, 100 mM NaCl, pH 6.1, 288 K
Method: Saturation transfer difference (STD) NMR experiments were carried out at 288 K using standard STD pulse sequences, with WATERGATE 3-9-19 water suppression method. Briefly, 1 mM of KH16p/KH16 peptide in 10 mM Na2HPO4 buffer (pH 6.1) with 100 mM NaCl was lyophilized and resuspended in an equal volume of D2O, and 2 μM 14-3-3ζ proteins was added to it. A train of 40 selective Gaussian-shaped pulses (49 ms each) with an interval period of 1 ms was used to saturate protein resonance for a total of 2 sec saturation time. During the STD NMR experiment, on- and off-resonance frequencies were set at -1 ppm and 40 ppm, respectively. Subtraction of off-resonance spectrum from the on-resonance spectra to yield signals appearing due to saturation transfer from protein to ligand was achieved using phase cycling. The one-dimensional STD spectra were acquired with 1024 scans with 16 dummy scans using a sweep width of 12 ppm. An exponential line broadening function of 3 Hz was applied to the spectral data before Fourier transformation. Similar STD experiments were performed on the peptide KH16p or KH16 in the absence of 14-3-3ζ protein as a control.

[6] = target: T2, 14-3-3ζ (Homo sapiens, UniProt P63104); assay: 31P NMR
T2 chain: T1 sequence (P63104 1-245)

Work on `CC[C@H](C)[C@H](NC(=O)[C@@H](N)CCCCN)C(=O)N[C@@H](CC(N)=O)C(=O)N[C@@H](CCCNC(=N)N)C(=O)N[C@@H](CO)C(=O)N[C@@H](C)C(=O)N[C@@H](COP(=O)(O)O)C(=O)N[C@@H](CCC(=O)O)C(=O)N1CCC[C@H]1C(=O)N[C@@H](CO)C(=O)N[C@@H](CC(C)C)C(=O)N[C@@H](Cc1c[nH]cn1)C(=O)N[C@@H](CCCNC(=N)N)C(=O)N[C@@H](C)C(=O)N[C@@H](C)C(=O)N[C@@H](Cc1c[nH]cn1)C(=O)O` [KH16p] (H-KINRSA[pS]EPSLHRAAH-OH) yielded a Kd [1] of 17.3 µM.

For 14-3-3ζ (from UniProt P63104), the Kd [2] is given as 16.7 µM, the Kd [3] is given as 0.346 µM and the Kd [4] is given as 171 µM.

In the case of “KH16: control peptide KH16 devoid of phosphorylation at S621 (C-Raf 615–630) (KINRSASEPSLHRAAH; UniProt P04049 615-630, looked up, fragment)”, the “STD NMR signals with 14-3-3ζ (in words)” value [5] is reported as “did not show any peaks in both the aromatic and the aliphatic regions”, the “N (stoichiometry)” value ([1]; ITC, 50 μM 14-3-3ζ in cell, 1 mM peptide in syringe, 298 K, 10 mM Na2HPO4, 100 mM NaCl, pH 6.1, single-site binding model) is reported as 1.89 ± 1.45 × 10^4 and the “T∆S” value ([1]; ITC, 298 K, pH 6.1) is reported as -1720.6 kJ/mol. The “binding affinity (in words)” value ([1]; ITC, 298 K, pH 6.1) was “did not show any appreciable binding affinity; also recorded: relatively weak and the corresponding KD value is in the millimolar range”, the “∆S” value ([1]; ITC, 298 K, pH 6.1, calculated from ΔG=ΔH−TΔS) was -1.38 × 10^3 cal mol^-1 deg^-1 and the “∆G” value ([1]; ITC, 298 K, pH 6.1, calculated from ΔG=−RTlnKA) was -8.2 kJ/mol.

B1: C-Raf KH16p phosphopeptide 615-630 (peptide)
chain: KINRSA[pS]EPSLHRAAH
Work on B1 yielded a Kd [6] of 17.7 µM.
